Measurements: patent US20250018037A1 (SEOUL NATIONAL UNIVERSITY R AND DB FOUNDATION, published 2025)
No end group written: not given here. *: point of attachment. Biotin = O=C1N[C@H]2[C@H](CS[C@H]2CCCCC(=O)*)N1

Experiments:
[1] = target: T1, Human CD40 on cells (Raji, Daudi, IM-9) (human, UniProt P25942 21-277); test: flow cytometry on Raji cells, anti-Myc staining (axis Myc); number not labelled as MFI on the sheet; 2nd Ab only -30.7
T1 construct: whole, on cells; also called cell surface CD40; hCD40

[2] = target: T2, Biotin conjugated 6×His peptide (also: biotin conjugated, site not given here); test: SPR (Biacore 8K): biotin 6×His peptide captured on immobilized streptavidin, scFv injected in 2-fold dilutions (6 curves)
T2 construct: also called histidine hexamer peptide
T2 peptide: HHHHHH
From the text: (§1) Since the murine anti-His antibody had decreased binding affinity against 6×His peptide after humanization, affinity maturation was further performed to increase it and chicken anti-CD40 antibody (2B1) was only humanized. Serial dilution antibodies at 6 concentrations were used to characterize the kinetics of antibody-antigen binding by SPR. […] So, there was not affinity loss against their antigen after humanization (FIG. 22B).
(§2) A Biacore 8K SPR system (Cytiva) equipped with CM5 sensor chip (Cytiva) was used to generate binding kinetic rate and affinity constants. To prepare the capture surfaces for anti-His antibodies, streptavidin was immobilized, followed by biotin conjugated 6×His peptide was captured. The antibodies were 2-fold serial diluted with 1×PBS, then injected at a flow rate of 30 μL/min for 3 minutes, allowing 10 minutes dissociation phase. The surface was regenerated using 10 mM glycine, pH 1.5. The kinetics were analyzed using Biacore 8K evaluation software, version 1.0 (Cytiva). In case of anti-CD40 antibodies, anti-human Fc IgG (Jackson ImmunoResearch) was immobilized, and then CD40-hFc protein (Acro Biosystems, #CD0-H5253) was captured. The antibodies were 2-fold serial diluted with HBS-EP+ buffer (10 mm HEPES, 150 mm sodium chloride, 3 mm EDTA, 0.05% Polysorbate 20), then injected at a flow rate of 30 μL/min for 4 minutes, allowing >15 minutes dissociation phase.

[3] = target: T3, BSA-conjugated c-Myc peptide (also: conjugated to BSA by thiol-maleimide reaction, thiol residue not given here); test: indirect ELISA after bio-panning against BSA-conjugated c-Myc peptide
T3 construct: also called the antigen
T3 peptide: EQKLISEEDL

[4] = target: T4, biotin-labeled c-Myc peptide (Biotin-GGGGSEQKLISEEDL); test: flow cytometry of human T cells 8 days after transduction, stained with biotin-labeled c-Myc peptide plus streptavidin-PE; axis Myc CAR
T4 construct: It is not the BSA conjugate m23; also called biotin c-Myc peptide; stain for Myc CAR
T4 peptide: Biotin-GGGGSEQKLISEEDL
Procedure: After 24 h, the activated T cells were harvested, resuspended (1×10⁶/ml) in a TM media containing human IL-7, human IL-15, and the lentiviral concentrate, and cultured for two days for CAR transduction. After washing the transduced T cells, the cells were expanded in TM media with human IL-7 and human IL-15 for eight days before use. CAR expression on the cell surface was determined by flow cytometry using biotin-labeled 6×His peptide (Biotin-[…]; Peptron) for hHis CAR-T or biotin-labeled c-Myc peptide (Biotin-[…]; Peptron) for hMyc CAR-T and PE-labeled streptavidin (Biolegend).

[5] = target: T5, CD40-hFc protein (Acro Biosystems, #CD0-H5253) (UniProt P25942 21-193); test: SPR (Biacore 8K): CD40-hFc captured on immobilized anti-human Fc IgG, scFv injected in 2-fold dilutions (6 curves)
T5 construct: Bought protein
From the text: as §1, §2

T5 sequence (P25942 21-193 limits assumed): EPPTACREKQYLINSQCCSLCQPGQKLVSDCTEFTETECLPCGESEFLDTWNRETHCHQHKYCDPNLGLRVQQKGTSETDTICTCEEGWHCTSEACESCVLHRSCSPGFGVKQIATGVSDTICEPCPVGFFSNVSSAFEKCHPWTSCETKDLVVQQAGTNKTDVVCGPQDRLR
T1 sequence (P25942 21-277): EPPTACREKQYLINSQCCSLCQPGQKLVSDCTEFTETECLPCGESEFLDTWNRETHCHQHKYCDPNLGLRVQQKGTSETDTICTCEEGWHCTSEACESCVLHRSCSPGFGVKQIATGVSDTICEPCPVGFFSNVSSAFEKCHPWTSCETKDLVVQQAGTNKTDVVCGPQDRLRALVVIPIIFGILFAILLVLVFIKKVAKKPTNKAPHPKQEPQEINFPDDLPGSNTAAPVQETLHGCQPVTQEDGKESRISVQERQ

B1: 2B1-Ck-L1-Myc (scFv)
scFv: QAALTQPSSVSANPGETVKITCSGGDSYAGSYYYGWFQQKAPGSAPVTVIYYNDKRPSDIPSRFSGSTSGSTSTLTITGVQAEDEAVYYCGSIDTSSGTGIFGAGTTLTVLGQSSRSSGGGGSSGGGGSAVTLDESGGGLQTPGGALSLVCKGSGFTFSSYQMFWVRQAPGKGLEYVAEISGSGLSTWYAPAVKGRATISRDNGQSTVRLQLNNLRAEDTGTYYCAKAAGSCGVGTCAGGIVDGIDAWGHGTEVIVSSTSGQAGQRTVAAPSVFIFPPSDEQLKSGTASVVCLLNNFYPREAKVQWKVDNALQSGNSQESVTEQDSKDSTYSLSSTLTLSKADYEKHKVYACEVTHQGLSSPVTKSFNRGESGGGGSEQKLISEEDL
In the case of B1, the MFI [1] is reported as 1520.

B2: Murine anti-His scFv (scFv)
scFv: DILMTQTPSSLPVSLGDQASISCRSSQSIVHSNGNTYLEWYLQKPGQSPKLLIYKVSNRFSGVPDRFSGSGSGTDFTLKISRVEAEDLGVYYCFQGSHVPFTFGSGTKLEIKRGGGGSGGGGSGGGGSGGGGSQVQLQQSGPEDVKPGASVKISCKASGYTFTDYYMNWVKQSPGKGLEWIGDINPNNGGTSYNQKFKGRATLTVDKSSSTAYMELRSLTSEDSSVYYCESQSGAYWGQGTTVTVSA
notes: also called anti-His (3D5M) scFv
B2 showed a Kd [2] of 36.6 nM, a koff [2] of 0.00547 s⁻¹ and a kon [2] of 149000 M⁻¹ s⁻¹.

B3: Anti-Myc scFv clone 7A1 (scFv)
scFv: QAALTQPSSVSVNPGETVKITCSGGGSSSYYGWYQQKSPGSAPVTLIYQNTNRPSNIPSRFSGSTSGSTGTLTITGVQAEDEAVYFCGSRDSSGDGIFGAGTTLTVLGQSSRSSGGGGSSGGGGSAVTLDESGGGLQTPGRALSLVCKASGFTFSSYDMAWVRQEPGKGLEYVASISRSGRYTRYGPAVKGRATISRDNGQSTVRLQLNNLRAEDTATYFCTRGGAVSIDTWGHGTEVIVSS
notes: Selected from a chicken scFv phage library by indirect ELISA
B3: binds [3].

B4: 2B1-Ck-L2-Myc (scFv)
scFv: QAALTQPSSVSANPGETVKITCSGGDSYAGSYYYGWFQQKAPGSAPVTVIYYNDKRPSDIPSRFSGSTSGSTSTLTITGVQAEDEAVYYCGSIDTSSGTGIFGAGTTLTVLGQSSRSSGGGGSSGGGGSAVTLDESGGGLQTPGGALSLVCKGSGFTFSSYQMFWVRQAPGKGLEYVAEISGSGLSTWYAPAVKGRATISRDNGQSTVRLQLNNLRAEDTGTYYCAKAAGSCGVGTCAGGIVDGIDAWGHGTEVIVSSTSGQAGQRTVAAPSVFIFPPSDEQLKSGTASVVCLLNNFYPREAKVQWKVDNALQSGNSQESVTEQDSKDSTYSLSSTLTLSKADYEKHKVYACEVTHQGLSSPVTKSFNRGESGGGGSGGGSEQKLISEEDL
B4 gave an MFI [1] of 2070.

B5: 2B1-Cκ-Myc (2B1-Cκ linked with C-terminal Myc peptide) (scFv)
scFv: QAALTQPSSVSANPGETVKITCSGGDSYAGSYYYGWFQQKAPGSAPVTVIYYNDKRPSDIPSRFSGSTSGSTSTLTITGVQAEDEAVYYCGSIDTSSGTGIFGAGTTLTVLGQSSRSSGGGGSSGGGGSAVTLDESGGGLQTPGGALSLVCKGSGFTFSSYQMFWVRQAPGKGLEYVAEISGSGLSTWYAPAVKGRATISRDNGQSTVRLQLNNLRAEDTGTYYCAKAAGSCGVGTCAGGIVDGIDAWGHGTEVIVSSTSGQAGQRTVAAPSVFIFPPSDEQLKSGTASVVCLLNNFYPREAKVQWKVDNALQSGNSQESVTEQDSKDSTYSLSSTLTLSKADYEKHKVYACEVTHQGLSSPVTKSFNRGESEQKLISEEDL
notes: also called 2B1-Ck-Myc; Myc peptide-tagged anti-hCD40 adaptor
In the case of B5, the MFI [1] is reported as 1860.

B6: hMyc (7A1) CAR (7A1-BBz), on human T cells (other)
chain: LTQPSSVSVNPGETVKITCSGGGSSSYYGWYQQKSPGSAPVTLIYQNTNRPSNIPSRFSGSTSGSTGTLTITGVQAEDEAVYFCGSRDSSGDGIFGAGTTLTVLGQSSRSSGGGGSSGGGGSAVTLDESGGGLQTPGRALSLVCKASGFTFSSYDMAWVRQEPGKGLEYVASISRSGRYTRYGPAVKGRATISRDNGQSTVRLQLNNLRAEDTATYFCTRGGAVSIDTWGHGTEVIVSSTTTPAPRPPTPAPTIASQPLSLRPEACRPAAGGAVHTRGLDFACDIYIWAPLAGTCGVLLLSLVITLYCKRGRKKLLYIFKQPFMRPVQTTQEEDGCSCRFPEEEEGGCELRVKFSRSADAPAYKQGQNQLYNELNLGRREEYDVLDKRRGRDPEMGGKPRRKNPQEGLYNELQKDKMAEAYSEIGMKGERRRGKGHDGLYQGLSTATKDTYDALHMQALPPR
notes: also called hMyc CAR-T cells (7A1)
B6 was tested, and the “number over the gate bar (percent of cells in the gate)” value [4] was 19.

B7: Chicken anti-CD40 scFv (2B1) (scFv)
scFv: QAALTQPSSVSANPGETVKITCSGGDSYAGSYYYGWFQQKAPGSAPVTVIYYNDKRPSDIPSRFSGSTSGSTSTLTITGVQAEDEAVYYCGSIDTSSGTGIFGAGTTLTVLGQSSRSSGGGGSSGGGGSAVTLDESGGGLQTPGGALSLVCKGSGFTFSSYQMFWVRQAPGKGLEYVAEISGSGLSTWYAPAVKGRATISRDNGQSTVRLQLNNLRAEDTGTYYCAKAAGSCGVGTCAGGIVDGIDAWGHGTEVIVSS
notes: also called parental antibody of the humanized anti-CD40 scFv; 2B1 scFv
B7 gave a Kd [5] of 2.83 nM, a koff [5] of 0.00588 s⁻¹ and a kon [5] of 2.08e+06 M⁻¹ s⁻¹.

B8: hMyc (8A9) CAR (8A9-BBz), on human T cells (other)
chain: LTQPSSVSANPGETVEITCSGGSSGYYGWHQQKSPGSAPVTVIYENTNRPSDIPSRFSGSKSGSTATLTITGVQADDEAVYFCGSYDSSSASGIFGAGTTLTVLGQSSRSSGGGGSSGGGGSAVTLDESGGGLQTPGGGLSLVCKASGFTFSSYDMAWVRQEPGKGLEYVASISRSGRYTRYGPAVKGRATISRDNGQSTVRLQLNNLRAEDTATYFCTRGGAVSIDTWGHGTEVIVSSTTTPAPRPPTPAPTIASQPLSLRPEACRPAAGGAVHTRGLDFACDIYIWAPLAGTCGVLLLSLVITLYCKRGRKKLLYIFKQPFMRPVQTTQEEDGCSCRFPEEEEGGCELRVKFSRSADAPAYKQGQNQLYNELNLGRREEYDVLDKRRGRDPEMGGKPRRKNPQEGLYNELQKDKMAEAYSEIGMKGERRRGKGHDGLYQGLSTATKDTYDALHMQALPPR
notes: also called hMyc CAR-T cells (8A9)
For B8, the “number over the gate bar (percent of cells in the gate)” value [4] was 21.9.

B9: Anti-Myc scFv clone 3A6 (scFv)
scFv: QAALTQPSSVSANLGGTVKITCSGGGGSDDGSYYYSWHQQKSPGSAPVTVIYENNNRPSDIPSRFSGSKSGSTATLTITGVQAEDEAVYYCGSRDSSYVDYVGIFGAGTTLTVLGQSSRSSGGGGSSGGGGSAVTLDESGGGLQTPGRALSLVCKASGFTFSSYDMAWVRQEPGKGLEYVASISRSGRYTRYGPAVKGRATISRDNGQSTVRLQLNNLRAEDTATYFCTRGGAVSIDTWGHGTEVIVSS
notes: Selected from a chicken scFv phage library by indirect ELISA; Later produced with an 8×His tag
B9: binds [3].

B10: 2B1-L1-Myc-Ck (scFv)
scFv: QAALTQPSSVSANPGETVKITCSGGDSYAGSYYYGWFQQKAPGSAPVTVIYYNDKRPSDIPSRFSGSTSGSTSTLTITGVQAEDEAVYYCGSIDTSSGTGIFGAGTTLTVLGQSSRSSGGGGSSGGGGSAVTLDESGGGLQTPGGALSLVCKGSGFTFSSYQMFWVRQAPGKGLEYVAEISGSGLSTWYAPAVKGRATISRDNGQSTVRLQLNNLRAEDTGTYYCAKAAGSCGVGTCAGGIVDGIDAWGHGTEVIVSSTSGQAGQGGGGSEQKLISEEDLRTVAAPSVFIFPPSDEQLKSGTASVVCLLNNFYPREAKVQWKVDNALQSGNSQESVTEQDSKDSTYSLSSTLTLSKADYEKHKVYACEVTHQGLSLPVTKSFNRGES
Work on B10 yielded an MFI [1] of 2400.

B11: hMyc (3A6) CAR (3A6-BBz), on human T cells (other)
chain: LTQPSSVSANLGGTVKITCSGGGGSDDGSYYYSWHQQKSPGSAPVTVIYENNNRPSDIPSRFSGSKSGSTATLTITGVQAEDEAVYYCGSRDSSYVDYVGIFGAGTTLTVLGQSSRSSGGGGSSGGGGSAVTLDESGGGLQTPGRALSLVCKASGFTFSSYDMAWVRQEPGKGLEYVASISRSGRYTRYGPAVKGRATISRDNGQSTVRLQLNNLRAEDTATYFCTRGGAVSIDTWGHGTEVIVSSTTTPAPRPPTPAPTIASQPLSLRPEACRPAAGGAVHTRGLDFACDIYIWAPLAGTCGVLLLSLVITLYCKRGRKKLLYIFKQPFMRPVQTTQEEDGCSCRFPEEEEGGCELRVKFSRSADAPAYKQGQNQLYNELNLGRREEYDVLDKRRGRDPEMGGKPRRKNPQEGLYNELQKDKMAEAYSEIGMKGERRRGKGHDGLYQGLSTATKDTYDALHMQALPPR
notes: also called hMyc CAR-T cells (3A6)
B11 was tested, and the “number over the gate bar (percent of cells in the gate)” value [4] was 38.9.
